Laboratory results taken from US20110124572A1, “SYNDECAN-4 IS A REGULATOR OF RAC1-GTP” (priority 2008, published 2011).
“And” between values parts separate entries of the source, which are not always exact repeats. Identical values can stand only once.

What was measured:
[1] = tested on: MCF-7 cells; test: Cell migration assay (time-lapse) on fibronectin; assay type: cell-based, human; conditions: MCF-7 line expressing the syndecan-4 variant, fibronectin
Method: (§1) The MCF-7 breast adenocarcinoma cells were obtained from ATCC, cultured in DMEM:F12 (Cambrex, Walkersville, Md., USA) supplemented with 10% fetal bovine serum (FBS) (Gibco, Bethesda, Md., USA), otherwise stated. The stably transfected cell lines were propagated in DMEM:F12 medium supplemented with 10% FBS and 200 μg/ml G418 (Cambrex, Walkersville, Md., USA). The cell lines were seeded onto glass coverslips or plastic dishes coated for 2 h with 10 μg/ml fibronectin (Sigma-Aldrich, St. Louis, Mo., USA). Scratch-wound assays were performed on stable transfected Syndecan-4 wild, Ser179Ala and Ser179Glu cells at 80% confluency. The cultures were scratched with a sterile P10 pipette tip 3-4 times in parallel lines. Images were taken 12, 24, 36 and 48 h following wounding.
In the cell migration assay 60% confluent MCF7 cells or the stably transfected lines were stimulated by 1 μM phorbol-12-myristate-13-acetate (PMA; from Sigma-Aldrich St. Louis, Mo., USA), otherwise stated. The images were taken using 10×, 20×0.3 objective at 3-min intervals for 2 h using inverted microscope (Leica) and organized into time-lapse movies in Adobe ImageReady® v. 8.
Results of the previous scratch-wound assay gave a hint that the Ser179Glu cells gained a migratory phenotype. […]

[2] = tested on: Rac1; test: Rac1 GTPase pulldown assay (Rac1-GTP level); assay type: cell-based, human; conditions: for relative Rac1-GTP level: relative to non-treated wt-syndecan-4; for reduction of activated Rac1 (GTP-Rac1) level: Gö6976 treatment
Method: (§2) Rac1 activity was characterised by applying RAC-activation kit purchased from Millipore (Upstate) and it was used according to the manufacturer's prescription. Briefly, p21-binding domain of PAK-1 was fused to agarose beads, which specifically binds to and precipitates Rac-GTP and Cdc42-GTP from cell lysates. Cells were harvested at 70% confluency of 25 ml flasks. The wild type Syndecan-4, Ser179Ala and Ser179Glu cells were treated for 60 minutes with 1 μM PMA (Sigma-Aldrich), or 500 nM rottlerin (Sigma-Aldrich), or 10 nM Gö6976 (Biosource, Camarillo, Calif., USA). The active Rac1 was detected by Western blotting using mouse anti-Rac1 antibody (Upstate). To test whether GST-Pak1-Rac/Cdc42-binding domain could pull syndecan-4 down, the blot was probed with rabbit polyclonal anti-syndecan-4 or mouse monoclonal anti-GFP antibody.

[3] = tested on: GTP-Rac/Cdc42-PAK complex; test: Pull-down of syndecan-4 by Rac1/CDC42-binding domain of PAK; design: species or system human; conditions: PAK-PKB pull-down, no γ-S GTP
Method: as §2
We tested whether the protein complex pulled down with the Rac1/CDC 42-binding domain of PAK (PAK-PKB) used in the Rac1 assay contained syndecan-4. Parallel filter of the Rac1 assay was probed with anti-syndecan-4 or anti-GFP antisera. The syndecan-4-GFP monomers migrating with 55 kDa relative electrophoretic mobility gave strong signals (FIG. 6). The amount of pulled-down syndecan-4 was in accordance with Rac1 level detected in the different syndecan-4 constructs (FIG. 6). […] When γ-S GTP was applied to the cell lysates to equalize the pulled-down Rac1-GTP level there was no difference in the amount of pulled-down syndecan-4 variants (FIG. 6). So, the affinity of the different syndecan-4 mutants is the same to the GTP-Rac/Cdc42-PAK complex. […]
We tested syndecan-4 whether it was pulled down by the Rac1/CDC 42-binding domain of PAK (PAK-PKB) used in the Rac1 assay. The syndecan-4-GFP monomers were detected as a 55 kDa relative electrophoretic mobility band probed with anti-syndecan-4 or anti-GFP antisera. […] The amount of pulled-down syndecan-4 was in accordance with Rac1 level detected in the different syndecan-4 constructs (FIG. 6). […]

[4] = tested on: MCF-7 cells; test: Scratch-wound assay; assay type: cell-based, human; conditions: for time to closure of the scratch gap: fibronectin, scratched at 80% confluence
Method: as §1
The wt-syndecan-4, Ser179Ala, and Ser179Glu lines were tested how they close the scratched wound on fibronectin substratum. At 80% confluence the cultures were scratch-wounded and healing was monitored. Still images were captured at the indicated time points (FIG. 1). In monolayers of the wt-syndecan-4 and the Ser179Ala lines the wounds healed from the edges, i.e. progenies of cell division narrowed the scratch but kept tight contact with the cell layer. […] The gaps closed in every case almost at the same time, in 42 hour. There was no difference in the growth rate of the different lines measured by SRB assay (data not shown).

[5] = target: T1, Tiam-1 (Homo sapiens, UniProt Q13009); test: Immunoprecipitation with anti-Tiam-1; assay type: binding; conditions: for Rac1 in the Tiam-1 precipitate: lysate of cells expressing the variant
T1 construct: we tested whether syndecan-4 can be co-immunoprecipitated by anti-Tiam-1; endogenous in cells; host or cells: MCF-7 lines expressing wt, Ser179Ala or Ser179Glu syndecan-4-GFP (RIPA lysates, GDP- or γ-S-GTP-saturated)
T1 sequence (Q13009 whole entry): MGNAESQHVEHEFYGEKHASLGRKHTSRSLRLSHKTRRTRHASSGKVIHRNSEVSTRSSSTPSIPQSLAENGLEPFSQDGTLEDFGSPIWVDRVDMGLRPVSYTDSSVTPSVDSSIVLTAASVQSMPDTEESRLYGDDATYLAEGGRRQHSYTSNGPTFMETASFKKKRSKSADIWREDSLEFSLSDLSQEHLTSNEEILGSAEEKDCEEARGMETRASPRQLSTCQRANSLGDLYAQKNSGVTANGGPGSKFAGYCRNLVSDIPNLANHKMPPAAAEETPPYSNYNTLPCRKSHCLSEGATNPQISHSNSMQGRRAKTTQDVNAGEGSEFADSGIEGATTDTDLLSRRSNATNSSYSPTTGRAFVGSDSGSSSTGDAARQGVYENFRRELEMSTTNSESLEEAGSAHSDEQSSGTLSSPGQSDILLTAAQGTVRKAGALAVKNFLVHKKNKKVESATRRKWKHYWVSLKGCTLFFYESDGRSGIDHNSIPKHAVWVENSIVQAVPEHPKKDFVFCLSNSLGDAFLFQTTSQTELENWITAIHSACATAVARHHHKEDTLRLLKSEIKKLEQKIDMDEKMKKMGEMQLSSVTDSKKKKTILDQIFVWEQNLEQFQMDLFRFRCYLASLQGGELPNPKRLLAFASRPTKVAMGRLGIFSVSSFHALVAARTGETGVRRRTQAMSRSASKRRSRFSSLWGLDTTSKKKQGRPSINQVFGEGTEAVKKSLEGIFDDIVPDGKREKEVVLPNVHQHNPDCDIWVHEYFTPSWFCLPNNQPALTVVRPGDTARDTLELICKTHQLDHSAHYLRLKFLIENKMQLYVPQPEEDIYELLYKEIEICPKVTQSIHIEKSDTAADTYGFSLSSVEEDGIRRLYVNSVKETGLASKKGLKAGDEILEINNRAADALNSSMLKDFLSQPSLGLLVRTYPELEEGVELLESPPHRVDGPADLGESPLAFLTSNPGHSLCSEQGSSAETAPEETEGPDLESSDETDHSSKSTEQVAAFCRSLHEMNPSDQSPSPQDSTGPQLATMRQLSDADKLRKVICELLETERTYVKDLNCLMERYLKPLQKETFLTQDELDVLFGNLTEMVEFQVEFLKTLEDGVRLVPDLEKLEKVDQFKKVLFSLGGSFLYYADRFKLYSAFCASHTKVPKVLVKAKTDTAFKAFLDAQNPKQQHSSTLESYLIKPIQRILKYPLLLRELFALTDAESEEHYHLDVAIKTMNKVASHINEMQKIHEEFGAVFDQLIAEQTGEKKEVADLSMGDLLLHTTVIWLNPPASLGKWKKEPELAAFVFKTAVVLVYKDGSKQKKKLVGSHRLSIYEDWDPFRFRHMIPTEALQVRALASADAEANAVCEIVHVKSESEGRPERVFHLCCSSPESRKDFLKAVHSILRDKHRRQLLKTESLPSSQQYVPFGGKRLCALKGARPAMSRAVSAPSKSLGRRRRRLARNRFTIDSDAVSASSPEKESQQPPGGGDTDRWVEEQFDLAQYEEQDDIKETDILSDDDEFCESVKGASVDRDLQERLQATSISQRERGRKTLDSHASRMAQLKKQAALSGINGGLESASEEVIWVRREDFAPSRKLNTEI
Method: In brief, 70% confluent cultures of 25 mL flask were detached, pelleted and following 2 times washing with PBS. The pellet were lysed in RIPA buffer then centrifuged and the supernatant was pre-cleared by addition of 5 μL of protein A/G-sepharose beads slurry (Pierce) for 2 hours, then the supernatant was incubated with the antibody of interest for 24 hours. 10 μL of protein A/G slurry was added for 2 hours, collected by pulse centrifugation, washed 3 times with lysis buffer, resuspended in 2×SDS loading buffer subjected to SDS-PAGE, followed by immunoblotting with the appropriate antibodies.
Since Tiam-1 is a Rac1-GEF (GTP exchange factor) and it could be pulled down by PAK-PKB (Mendoza-Naranjo et al., 2006) we tested whether syndecan-4 can be co-immunoprecipitated by anti-Tiam-1. The syndecan-4 chimeras were detected by anti-syndecan-4 and anti-GFP antisera at 55 kDa and 90 kDa length, which were correspondent to the monomer and dimmer forms, respectively. Because the co-sedimentation of syndecan-4 by PAK-PKB was GDP-GTP dependent we tested if the GDP or GTP had effect for the amount of the anti-Tiam-1-co-immunoprecipitated syndecan-4 forms.
PDZ domain of Tiam-1 was reported to bind peptides containing amino acid sequence of FYA (Songyang et al., 1997) that is part of the cytoplasmic segment of syndecan-4. Therefore syndecan-4 seemed a good candidate to interact with Tiam-1. In the immunoprecipitate of Tiam-1 syndecan-4 variants were detected by anti-syndecan-4 or anti-GFP antisera at 55 kDa length, which was correspondent to the monomer forms. There was no significant difference in the binding of Tiam-1 and syndecan-4 variants in the GDP or γ-S GTP saturated cases.
Considering that phospho-syndecan-4 down-regulates the Rac1 activity consequently Rac1 was also tested in the Tiam-1 precipitate to study the nature of inhibition. If the Rac1 activity were regulated by direct interaction of syndecan-4 we might expect a trapped intermedier as it was found in the case of Brefeldin A (Renault et al., 2003).

B1: wt-syndecan-4: human syndecan-4 with GFP inserted at position 131, stably expressed in MCF-7 cells (protein)
chain: ESIRETEVIDPQDLLEGRYFSGALPDDEDVVGPGQESDDFELSGSGDLDDLEDSMIGPEVVHPLVPLDNHIPERAGSGSQVPTEPKKLEENEVIPKRISPVEESEDVSNKVSMSSTVQGSNIFERTEVLAALIVGGIVGILFAVFLILLLMYRMKKKDEGSYDLGKKPIYKKAPTNEFYA
modifications: left off: large carriers
notes: human syndecan-4 with GFP inserted at position 131, stably expressed in MCF-7 cells
B1 was tested, and the migration ([1]; 1 μM PMA) was 0.3±0.1 μm/min and 0.3 μm/min, the “relative Rac1-GTP level” value ([2]; 10 nM Gö6976 60 min) was 0.25 ± 0.03 and the “relative Rac1-GTP level” value ([2]; 1 μM PMA 60 min) was 0.25 and 0.25 ± 0.05. For the same molecule, the “reduction of activated Rac1 (GTP-Rac1) level” value [2] was 4.2±0.4 fold, the “relative Rac1-GTP level” value ([2]; nt (non-treated)) was 1 and the “amount of pulled-down syndecan-4, less than from the Ser179Ala line” value [3] was “approximately 20%”. The “time to closure of the scratch gap” value [4] was 42 h, the “syndecan-4 form co-immunoprecipitated by anti-Tiam-1” value ([5]; cell lysate saturated by GDP) was “dominant” and the “Rac1 in the Tiam-1 precipitate” value [5] was “observed”.

B2: Ser179Glu: phosphomimetic Ser179 to Glu mutant of human syndecan-4-GFP, expressed in MCF-7 cells (protein, UniProt P31431 19-198, looked up, variant S179E)
Syndecan-4: ESIRETEVIDPQDLLEGRYFSGALPDDEDVVGPGQESDDFELSGSGDLDDLEDSMIGPEVVHPLVPLDNHIPERAGSGSQVPTEPKKLEENEVIPKRISPVEESEDVSNKVSMSSTVQGSNIFERTEVLAALIVGGIVGILFAVFLILLLMYRMKKKDEGEYDLGKKPIYKKAPTNEFYA
modifications: GFP inserted at position 131
notes: phosphomimetic Ser179 to Glu mutant of human syndecan-4-GFP, expressed in MCF-7 cells
For B2, the migration ([1]; nt (non-treated)) was 0.4±0.1 μm/min, the “relative Rac1-GTP level” value ([2]; 10 nM Gö6976 60 min) was 0.06 ± 0.02 and the “relative Rac1-GTP level” value ([2]; 1 μM PMA 60 min) was 0.9±0.2 and 0.95 ± 0.06. The “reduction of activated Rac1 (GTP-Rac1) level” value [2] was 16±2 fold, the “decrease of the Rac1-GTP level” value ([2]; expression of the variant, untreated) was 1.5 fold and the “relative Rac1-GTP level” value ([2]; nt (non-treated)) was 0.6±0.1. The “amount of pulled-down syndecan-4” value [3] was “hardly detectable”, the “cell motility in the scratched area” value ([4]; by 12 hours following wounding) was “enhanced cell motility” and the “time to closure of the scratch gap” value [4] was 42 h. For the same molecule, the “syndecan-4 form co-immunoprecipitated by anti-Tiam-1” value ([5]; γ-S GTP saturated lysate) was “detected abundantly”.

B3: Ser179Ala: phosphodefective Ser179 to Ala mutant of human syndecan-4-GFP, expressed in MCF-7 cells (protein, UniProt P31431 19-198, looked up, variant S179A)
Syndecan-4: ESIRETEVIDPQDLLEGRYFSGALPDDEDVVGPGQESDDFELSGSGDLDDLEDSMIGPEVVHPLVPLDNHIPERAGSGSQVPTEPKKLEENEVIPKRISPVEESEDVSNKVSMSSTVQGSNIFERTEVLAALIVGGIVGILFAVFLILLLMYRMKKKDEGAYDLGKKPIYKKAPTNEFYA
modifications: GFP inserted at position 131
notes: phosphodefective Ser179 to Ala mutant of human syndecan-4-GFP, expressed in MCF-7 cells
With B3 the “relative Rac1-GTP level” value ([2]; 10 nM Gö6976 60 min) was 1±0.1 and 1 ± 0.01, the “relative Rac1-GTP level” value ([2]; 1 μM PMA 60 min) was 0.46 ± 0.05 and the “relative Rac1-GTP level” value ([2]; nt (non-treated)) was 1.9±0.15. For the same molecule, the “amount of pulled-down syndecan-4, more than the wt-syndecan-4” value [3] was “approximately 20%”, the “time to closure of the scratch gap” value [4] was 42 h and the “syndecan-4 form co-immunoprecipitated by anti-Tiam-1” value ([5]; cell lysate saturated by GDP) was “dominant”. The “Rac1 in the Tiam-1 precipitate” value [5] was “observed”.
